Results as given in publication PMC2132943.

Target: T1, CXCR4 receptor (human (endogenous in HEK-293)), P61073
T1 chain: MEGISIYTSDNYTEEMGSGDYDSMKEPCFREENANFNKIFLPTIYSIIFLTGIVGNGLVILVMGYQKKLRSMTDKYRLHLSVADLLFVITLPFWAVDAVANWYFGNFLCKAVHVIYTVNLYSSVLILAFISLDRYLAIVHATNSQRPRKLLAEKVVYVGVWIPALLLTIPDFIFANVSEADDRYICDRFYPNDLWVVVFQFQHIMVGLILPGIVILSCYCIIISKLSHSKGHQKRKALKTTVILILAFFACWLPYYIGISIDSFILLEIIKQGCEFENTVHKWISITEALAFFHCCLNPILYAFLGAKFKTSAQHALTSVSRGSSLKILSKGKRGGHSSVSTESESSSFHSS
Assay: cross-linking
Settings: remark: other sources report otherwise

stoichiometry N: 2
B1: CXCR4 receptor, P61073 1-352 (receptor)
chain: MEGISIYTSDNYTEEMGSGDYDSMKEPCFREENANFNKIFLPTIYSIIFLTGIVGNGLVILVMGYQKKLRSMTDKYRLHLSVADLLFVITLPFWAVDAVANWYFGNFLCKAVHVIYTVNLYSSVLILAFISLDRYLAIVHATNSQRPRKLLAEKVVYVGVWIPALLLTIPDFIFANVSEADDRYICDRFYPNDLWVVVFQFQHIMVGLILPGIVILSCYCIIISKLSHSKGHQKRKALKTTVILILAFFACWLPYYIGISIDSFILLEIIKQGCEFENTVHKWISITEALAFFHCCLNPILYAFLGAKFKTSAQHALTSVSRGSSLKILSKGKRGGHSSVSTESESSSFHSS
